Measured values from the supplement of paper PMC10567573.

B1: TBX5 (parent)
chain: YQNHKITQLKIENNPFAKGFRGSD
B2: ZNF263 (parent)
chain: RTHTGEKPYKCTLCGENFSHRSNL

Variants of: B1
Assay: protein stability index of a GFP-peptide fusion (GPS, HEK-293T) (PSI 1-6); higher = more stable
Details: c terminus: a fixed tail appended
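Further: lentivirally expressed fusions sorted by FACS into six bins by GFP to DsRed ratio, PSI derived from sequencing read proportions per bin multiplied by bin number.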

Protein stability index of substitutions, site by site:
I6: A 3.47, G 2.3, F 2.45, T 3.06, K 3.27, H 2.83, W 4.36, R 2.79, C 2.36, V 2.4, E 3.16, S 3.04, Q 2.98, L 2.45, N 3.09, Y 2.53, D 3.53, P 2.8, M 2.7
H4: V 2.68, C 1.67, K 2.4, F 1.89, Q 2.66, I 2.11, A 2.52, P 2.58, L 3.06, W 2.89, T 2.44, R 2.77, Y 2.15, D 3.52, G 2.57, S 2.62, N 2.87, E 3.19, M 2.49
K18: C 1.36, D 2.16, E 3.08, A 2.24, F 1.7
E12: T 2.75, L 2.17, G 2.01, I 1.81, W 1.49, V 1.91, S 2.11, K 1.84, N 2.51, M 2.35, R 1.98, H 2.3, C 1.73, F 1.7, D 2.94, Q 2.22, Y 1.69, A 2.32, P 2.63
N14: P 2.52, D 2.84, C 1.58, F 2.34, T 2.61, S 2.16, G 2.46, V 2.27, M 2.05, W 1.59, Y 1.89, E 2.95, L 2.52, R 2.58, I 2.41, A 2.61, Q 2.94, K 2.75, H 2.36
Q2: F 2.75, K 2.85, Y 2.92, W 2.04, I 2.19, N 3.48, C 2.54, M 2.61, T 2.4, G 2.54, S 3.26, H 1.46, L 2.84, V 2.39, P 2.63, E 3.14, A 1.84, D 4.02, R 2.61
N3: Q 2.93, W 1.89, E 3.33, C 1.75, I 1.97, G 2.26, R 2.44, P 2.57, T 2.42, L 2.07, Y 1.99, F 2.23, H 2.29, V 2.39, A 1.94, S 2.3, M 2.16, K 2.64, D 2.71
K5: C 2.15, L 2.18, N 2.59, G 2.57, F 1.84, I 1.51, M 2, H 2.03, D 3.06, V 2.44, Y 1.95, A 2.7, S 2.21, E 2.98, R 2.38, W 2.64, Q 2.81, T 2.44, P 2.77
Q8: W 1.57, K 2.28, G 2.73, V 2.49, M 2.2, Y 1.57, N 2.4, S 2.13, F 1.7, C 1.91, I 2.06, L 1.41, A 2.79, R 1.99, E 2.97, D 2.75, H 2.41, T 2.19, P 2.41
T7: W 3.51, H 2.77, M 2.21, V 2.29, C 1.94, Y 2.37, R 2.48, K 3.31, L 2.3, P 2.85, I 2.5, Q 2.63, E 3.32, A 2.15, F 1.61, S 2.46, N 2.59, G 2.12, D 2.69
L9: N 3.01, G 2.35, C 2.02, R 3.54, P 2.84, H 2.38, W 1.71, T 2.37, A 2.83, D 3.21, F 2.26, K 2.81, E 3.09, I 2.73, S 3.07, Q 3.19, Y 2.31, V 4.05, M 2.58
N13: A 2.17, I 1.51, W 2.09, V 1.81, C 2.31, R 2.46, F 1.94, P 2.25, Q 2.55, H 2.15, T 2.25, L 1.67, D 2.48, M 2.29, Y 1.77, G 1.81, K 2.34, E 2.36, S 2.37
A17: R 2.12, Y 2.18, L 2.34, I 2.09, C 2.22, S 2.01, V 2.73, T 2.43, H 2.54, G 2.27, W 1.98, D 2.73, P 2.77, M 2.5, E 3.12, K 2.73, Q 2.54, F 1.95, N 2.21
I11: F 2.25, C 2.48, P 2.71, H 2.33, Y 2.83, E 3.23, G 2.47, V 2.58, R 2.71, L 2.62, K 2.52, D 3.27, T 2.71, S 2.96, N 2.59, A 2.36, W 2.34, Q 2.58, M 2.64
P15: A 2.52, V 2.38, S 2.7, K 2.33, D 3.34, T 2.82, R 2.35, M 2.65, N 2.7, F 1.96, L 2.08, I 2.04, E 2.69, G 2.37, C 2.34, Y 2.34, W 1.87, Q 2.32, H 2.35
F16: V 2.73, E 3.64, L 2.51, D 3.52, A 3.12, I 3, T 3.47, W 1.93, R 3.16, P 3.93, Y 2.46, G 2.83, M 2.98, Q 3.44, C 3.17, K 3.31, N 3.48, S 3.56, H 3.54
K10: W 1.95, N 2.46, G 1.85, I 1.63, R 2.58, Q 2.5, C 2.11, P 3.2, T 2.74, D 2.68, L 2.03, E 3.11, Y 2.17, S 2.79, F 1.81, M 2.23, A 2.91, V 2.02, H 2.2
Y1: Q 3.68, P 3.52, M 3.79, S 2.82, F 2.48, T 3.65, L 3.42, N 3.35, K 3.91, C 3.19, V 3.22, E 3.58, I 3.32, R 3.61, A 3.46, D 3.46, W 2.92, G 3.64, H 3.79

Variants of: B2
Assay: as above
Details: c terminus: a fixed tail appended

Protein stability index of substitutions, site by site:
E6: H 1.71
F18: W 2.07
H20: V 1.89, P 1.82
L13: T 2.57
E16: S 1.99
